One test addresses His-Fascin (human, UniProt Q16658 1-493). Kind of test: pull-down.
Another test has as its target GST-Fascin (human, UniProt Q16658 1-493). In words: pull-down.

B1: GST-PCAF (enzyme)
chain: MSEAGGAGPGGCGAGAGAGAGPGALPPQPAALPPAPPQGSPCAAAAGGSGACGPATAVAAAGTAEGPGGGGSARIAVKKAQLRSAPRAKKLEKLGVYSACKAEESCKCNGWKNPNPSPTPPRADLQQIIVSLTESCRSCSHALAAHVSHLENVSEEEMNRLLGIVLDVEYLFTCVHKEEDADTKQVYFYLFKLLRKSILQRGKPVVEGSLEKKPPFEKPSIEQGVNNFVQYKFSHLPAKERQTIVELAKMFLNRINYWHLEAPSQRRLRSPNDDISGYKENYTRWLCYCNVPQFCDSLPRYETTQVFGRTLLRSVFTVMRRQLLEQARQEKDKLPLEKRTLILTHFPKFLSMLEEEVYSQNSPIWDQDFLSASSRTSQLGIQTVINPPPVAGTISYNSTSSSLEQPNAGSSSPACKASSGLEANPGEKRKMTDSHVLEEAKKPRVMGDIPMELINEVMSTITDPAAMLGPETNFLSAHSARDEAARLEERRGVIEFHVVGNSLNQKPNKKILMWLVGLQNVFSHQLPRMPKEYITRLVFDPKHKTLALIKDGRVIGGICFRMFPSQGFTEIVFCAVTSNEQVKGYGTHLMNHLKEYHIKHDILNFLTYADEYAIGYFKKQGFSKEIKIPKTKYVGYIKDYEGATLMGCELNPRIPYTEFSVIIKKQKEIIKKLIERKQAQIRKVYPGLSCFKDGVRQIPIESIPGIRETGWKPSGKEKSKEPRDPDQLYSTLKSILQQVKSHQSAWPFMEPVKRTEAPGYYEVIRFPMDLKTMSERLKNRYYVSKKLFMADLQRVFTNCKEYNPPESEYYKCANILEKFFFSKIKEAGLIDK
With B1, the binding result with His-Fascin is “binds”.

B2: His-PCAF (enzyme)
chain: B1 chain
Turning to B2, the binding result with GST-Fascin is “binds”.

B3: GST-fused C-terminal BROMO (659-832) domain of PCAF (domain or fragment)
chain: FSVIIKKQKEIIKKLIERKQAQIRKVYPGLSCFKDGVRQIPIESIPGIRETGWKPSGKEKSKEPRDPDQLYSTLKSILQQVKSHQSAWPFMEPVKRTEAPGYYEVIRFPMDLKTMSERLKNRYYVSKKLFMADLQRVFTNCKEYNPPESEYYKCANILEKFFFSKIKEAGLIDK
Consider B3, for which, in the test with His-Fascin, the binding result is “binds”.

B4: GST-fused N-terminal (1-492) domain of PCAF (domain or fragment)
chain: MSEAGGAGPGGCGAGAGAGAGPGALPPQPAALPPAPPQGSPCAAAAGGSGACGPATAVAAAGTAEGPGGGGSARIAVKKAQLRSAPRAKKLEKLGVYSACKAEESCKCNGWKNPNPSPTPPRADLQQIIVSLTESCRSCSHALAAHVSHLENVSEEEMNRLLGIVLDVEYLFTCVHKEEDADTKQVYFYLFKLLRKSILQRGKPVVEGSLEKKPPFEKPSIEQGVNNFVQYKFSHLPAKERQTIVELAKMFLNRINYWHLEAPSQRRLRSPNDDISGYKENYTRWLCYCNVPQFCDSLPRYETTQVFGRTLLRSVFTVMRRQLLEQARQEKDKLPLEKRTLILTHFPKFLSMLEEEVYSQNSPIWDQDFLSASSRTSQLGIQTVINPPPVAGTISYNSTSSSLEQPNAGSSSPACKASSGLEANPGEKRKMTDSHVLEEAKKPRVMGDIPMELINEVMSTITDPAAMLGPETNFLSAHSARDEAARLEERRG
For B4, in the test with His-Fascin, the binding result is “binds”.

These data come from publication PMC8696220 (Cancer Communications, 2021).
